Data as given in patent publication US20230002480A1.

Experiments:
Assay in all cases: cell-based or functional assay
[1] = target: HIV-1 Env of pseudovirus 0815.v3.c3 (HIV-1)
[2] = target: HIV-1 Env of pseudovirus 246F C1G (HIV-1)
[3] = target: HIV-1 Env of pseudovirus 3365.v2.c2 (HIV-1)
[4] = target: HIV-1 Env of pseudovirus 3817.v2.c59 (HIV-1)
[5] = target: HIV-1 Env of pseudovirus 6041.v3.c23 (HIV-1)
[6] = target: HIV-1 Env of pseudovirus 6535.3 (HIV-1)
[7] = target: HIV-1 Env of pseudovirus BF1266.431a (HIV-1)
[8] = target: HIV-1 Env of pseudovirus BJOX009000.02.4 (HIV-1)
[9] = target: HIV-1 Env of pseudovirus BJOX015000.11.5 (HIV-1)
[10] = target: HIV-1 Env of pseudovirus CAAN5342.A2 (HIV-1)
[11] = target: HIV-1 Env of pseudovirus CNE19 (HIV-1)
[12] = target: HIV-1 Env of pseudovirus CNE20 (HIV-1)
[13] = target: HIV-1 Env of pseudovirus CNE52 (HIV-1)
[14] = target: HIV-1 Env of pseudovirus Ce0682_E4 (HIV-1)
[15] = target: HIV-1 Env of pseudovirus Ce1086_B2 (HIV-1)
[16] = target: HIV-1 Env of pseudovirus Ce2060_G9 (HIV-1)
[17] = target: HIV-1 Env of pseudovirus Ce704809221_1B3 (HIV-1)
[18] = target: HIV-1 Env of pseudovirus HIV-0013095-2.11 (HIV-1)
[19] = target: HIV-1 Env of pseudovirus HIV-16055-2.3 (HIV-1)
[20] = target: HIV-1 Env of pseudovirus HIV-16845-2.22 (HIV-1)
[21] = target: HIV-1 Env of pseudovirus Q23.17 (HIV-1)
[22] = target: HIV-1 Env of pseudovirus Q842.d12 (HIV-1)
[23] = target: HIV-1 Env of pseudovirus R2184.c04 (HIV-1)
[24] = target: HIV-1 Env of pseudovirus R3265.c06 (HIV-1)
[25] = target: HIV-1 Env of pseudovirus T250-4 (HIV-1)
[26] = target: HIV-1 Env of pseudovirus T278-50 (HIV-1)
[27] = target: HIV-1 Env of pseudovirus X2131_C1_B5 (HIV-1)
[28] = target: HIV-1 Env of pseudovirus ZM109F.PB4 (HIV-1)
[29] = target: HIV-1 Env of pseudovirus ZM135M.PL10a (HIV-1)
[30] = target: HIV-1 Env of pseudovirus ZM197M.PB7 (HIV-1)
[31] = target: HIV-1 Env of pseudovirus ZM233M.PB6 (HIV-1)
[32] = target: HIV-1 Env of pseudovirus ZM247v1(Rev-) (HIV-1)
[33] = target: HIV-1 Env of pseudovirus ZM53M.PB12 (HIV-1)

B1: N49P23 (antibody, V domains shown)
VH: QVRLVQSGAGARKTGASMKLSCSTSGYTFTTHHGHFINWVRQARGQGLEWMGWMNPMTGQMNIEGKFQGRVTLTRDIYSDTAYMEMTRLTTGDTGTYYCARGDFGQNYPFHYWGQGSLVIVSS
VL: LSALTQPASVSGSPGQSVTISCSGTNRYLVSWYQQHPDKAPKLIIYDDNKRPSGISDRFSASRPDDTASLTISGLQTGDEATYWCASYERFGGGTRLTVLS
IC50 [1]: 0.004 µg/mL | IC80 [1]: 0.014 µg/mL | MPI [1]: 100 | IC50 [2]: > 50 µg/mL | IC80 [2]: > 50 µg/mL | MPI [2]: 11 | IC50 [3]: 0.017 µg/mL | IC80 [3]: 0.053 µg/mL | MPI [3]: 100 | IC50 [4]: > 50 µg/mL | IC80 [4]: > 50 µg/mL | MPI [4]: 41 | IC50 [5]: 7.47 µg/mL | IC80 [5]: > 50 µg/mL | MPI [5]: 63 | IC50 [6]: 0.127 µg/mL | IC80 [6]: 0.855 µg/mL | MPI [6]: 100 | IC50 [7]: 0.083 µg/mL | IC80 [7]: 0.44 µg/mL | MPI [7]: 99 | IC50 [8]: > 50 µg/mL | IC80 [8]: > 50 µg/mL | MPI [8]: 8 | IC50 [9]: > 50 µg/mL | IC80 [9]: > 50 µg/mL | MPI [9]: 0 | IC50 [10]: 0.412 µg/mL | IC80 [10]: 1.38 µg/mL | MPI [10]: 100 | IC50 [11]: > 50 µg/mL | IC80 [11]: > 50 µg/mL | MPI [11]: 40 | IC50 [12]: 45.4 µg/mL | IC80 [12]: > 50 µg/mL | MPI [12]: 51 | IC50 [13]: 0.014 µg/mL | IC80 [13]: 0.051 µg/mL | MPI [13]: 100 | IC50 [14]: 1.39 µg/mL | IC80 [14]: > 50 µg/mL | MPI [14]: 76 | IC50 [15]: 0.063 µg/mL | IC80 [15]: 0.303 µg/mL | MPI [15]: 100 | IC50 [16]: 0.18 µg/mL | IC80 [16]: 0.849 µg/mL | MPI [16]: 99 | IC50 [17]: 0.083 µg/mL | IC80 [17]: 0.643 µg/mL | MPI [17]: 100 | IC50 [18]: 0.114 µg/mL | IC80 [18]: 0.899 µg/mL | MPI [18]: 96 | IC50 [19]: > 50 µg/mL | IC80 [19]: > 50 µg/mL | MPI [19]: 17 | IC50 [20]: > 50 µg/mL | IC80 [20]: > 50 µg/mL | MPI [20]: 20 | IC50 [21]: 0.01 µg/mL | IC80 [21]: 0.046 µg/mL | MPI [21]: 100 | IC50 [22]: 0.007 µg/mL | IC80 [22]: 0.022 µg/mL | MPI [22]: 100 | IC50 [23]: 0.008 µg/mL | IC80 [23]: 0.032 µg/mL | MPI [23]: 100 | IC50 [24]: > 50 µg/mL | IC80 [24]: > 50 µg/mL | MPI [24]: 0 | IC50 [25]: > 50 µg/mL | IC80 [25]: > 50 µg/mL | MPI [25]: 0 | IC50 [26]: > 50 µg/mL | IC80 [26]: > 50 µg/mL | MPI [26]: 22 | IC50 [27]: 0.08 µg/mL | IC80 [27]: 0.28 µg/mL | MPI [27]: 100 | IC50 [28]: 0.039 µg/mL | IC80 [28]: 0.18 µg/mL | MPI [28]: 100 | IC50 [29]: > 50 µg/mL | IC80 [29]: > 50 µg/mL | MPI [29]: 36 | IC50 [30]: 0.1 µg/mL | IC80 [30]: 0.385 µg/mL | MPI [30]: 100 | IC50 [31]: > 50 µg/mL | IC80 [31]: > 50 µg/mL | MPI [31]: 14 | IC50 [32]: > 50 µg/mL | IC80 [32]: > 50 µg/mL | MPI [32]: 24 | IC50 [33]: 0.135 µg/mL | IC80 [33]: 0.651 µg/mL | MPI [33]: 100

B2: N49P22 (antibody, V domains shown)
V domain 1: HIQLLQSGPQVKKSGDTVRISCETSGYNFVDSRIHWVRQTPEKRLRWMGWINPLQGGVNYAPEFQGRIRMTRDTFIDTVYVDLSGLTPADTAYYYCARGIDGKSYPFHFWGHGTRVTVFS
V domain 2: RFALTQPASVSGSPGQTITITCAGGSVSWFHFPPGKTPRLIIYESSKRPSGVSPRFSGSQSGSTASLIISGLQSDDEGTYFCSILEFFGRGTLVTVLS
IC50 [1]: 0.161 µg/mL | IC80 [1]: 1.08 µg/mL | MPI [1]: 98 | IC50 [2]: > 50 µg/mL | IC80 [2]: > 50 µg/mL | MPI [2]: 10 | IC50 [3]: 0.254 µg/mL | IC80 [3]: 0.857 µg/mL | MPI [3]: 98 | IC50 [4]: > 50 µg/mL | IC80 [4]: > 50 µg/mL | MPI [4]: 12 | IC50 [5]: 7.55 µg/mL | IC80 [5]: > 50 µg/mL | MPI [5]: 66 | IC50 [6]: > 50 µg/mL | IC80 [6]: > 50 µg/mL | MPI [6]: 5 | IC50 [7]: > 50 µg/mL | IC80 [7]: > 50 µg/mL | MPI [7]: 0 | IC50 [8]: 17.3 µg/mL | IC80 [8]: > 50 µg/mL | MPI [8]: 64 | IC50 [9]: 1.26 µg/mL | IC80 [9]: 10.8 µg/mL | MPI [9]: 89 | IC50 [10]: 0.425 µg/mL | IC80 [10]: 1.88 µg/mL | MPI [10]: 99 | IC50 [11]: 0.873 µg/mL | IC80 [11]: 8.19 µg/mL | MPI [11]: 92 | IC50 [12]: > 50 µg/mL | IC80 [12]: > 50 µg/mL | MPI [12]: 18 | IC50 [13]: 1.7 µg/mL | IC80 [13]: 10 µg/mL | MPI [13]: 91 | IC50 [14]: 1.13 µg/mL | IC80 [14]: > 50 µg/mL | MPI [14]: 75 | IC50 [15]: > 50 µg/mL | IC80 [15]: > 50 µg/mL | MPI [15]: 0 | IC50 [16]: > 50 µg/mL | IC80 [16]: > 50 µg/mL | MPI [16]: 19 | IC50 [17]: 15.8 µg/mL | IC80 [17]: > 50 µg/mL | MPI [17]: 60 | IC50 [18]: > 50 µg/mL | IC80 [18]: > 50 µg/mL | MPI [18]: 9 | IC50 [19]: 4.66 µg/mL | IC80 [19]: 39.7 µg/mL | MPI [19]: 83 | IC50 [20]: 4.6 µg/mL | IC80 [20]: 41.9 µg/mL | MPI [20]: 87 | IC50 [21]: 0.321 µg/mL | IC80 [21]: 2.4 µg/mL | MPI [21]: 96 | IC50 [22]: 0.079 µg/mL | IC80 [22]: 0.359 µg/mL | MPI [22]: 100 | IC50 [23]: 0.077 µg/mL | IC80 [23]: 0.342 µg/mL | MPI [23]: 100 | IC50 [24]: 3.58 µg/mL | IC80 [24]: > 50 µg/mL | MPI [24]: 67 | IC50 [25]: > 50 µg/mL | IC80 [25]: > 50 µg/mL | MPI [25]: 5 | IC50 [26]: > 50 µg/mL | IC80 [26]: > 50 µg/mL | MPI [26]: 25 | IC50 [27]: > 50 µg/mL | IC80 [27]: > 50 µg/mL | MPI [27]: 44 | IC50 [28]: > 50 µg/mL | IC80 [28]: > 50 µg/mL | MPI [28]: 1 | IC50 [29]: > 50 µg/mL | IC80 [29]: > 50 µg/mL | MPI [29]: 27 | IC50 [30]: 2.58 µg/mL | IC80 [30]: 25.1 µg/mL | MPI [30]: 84 | IC50 [31]: > 50 µg/mL | IC80 [31]: > 50 µg/mL | MPI [31]: 2 | IC50 [32]: > 50 µg/mL | IC80 [32]: > 50 µg/mL | MPI [32]: 11 | IC50 [33]: 1.2 µg/mL | IC80 [33]: 11.8 µg/mL | MPI [33]: 91
